Values quoted from earlier work, collected in paper PMC2994244.
Read-outs that look alike come from different tables or passages of the source.

Tests used:
[1] = molecular target: ACP (Escherichia coli) (UniProt P0A6A8)
[2] = molecular target: ACP (Escherichia coli) (UniProt P0A6A8); remark: listed apart in the source

UniProt P0A6A8, sequence (P0A6A8 2-78): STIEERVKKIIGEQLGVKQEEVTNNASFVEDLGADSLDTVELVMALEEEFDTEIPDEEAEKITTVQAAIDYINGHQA

Substance	Kd [1]	Kd [2]
KASI (from UniProt P0A953)	180 nM	
KASII (from UniProt P0AAI5)		70 nM
